Source: patent US6365372

Biological target: Gal-CBP1-2441 chimera (yeast) (UniProt P45481)
Assay: cell-based or functional assay

ability of Gal-CBP to activate transcription of pGal-CAT: 2.5 fold
Substance: SRCAP1275-2971 (from UniProt Q6ZRS2 1534-3230)
